Measured values published in patent publication US12624096B2, “Anti-tau antibodies and methods of use thereof” (GTInvent Limited, priority 2020, dated 2026).
Entries after “also recorded” stand apart in the source; their conditions may differ.

How the values were obtained:
[1] = Pharmacokinetic study of S1D12 mAb, single dose, plasma and brain (dGAE ligand binding ELISA); assay type: in vivo, mouse; settings: single dose 30 mg/kg i.p., NMRI mice, plasma
Method: For the PK study, a total of 42 female NMRI mice (Swiss-type mouse, Naval Medical Research Institute) aged 6 months were allocated into six groups according to sample collection time (Table 30 for group size). Animals were injected intraperitoneally with S1D12 (30 mg/kg) and sacrificed 24-, 48-, 72-hours and 7-, 14- and 31-days after injection to collect blood and brain samples. A control group was also included in which animals were sacrificed to collect blood and brain, but no test item was administered.
Blood samples were centrifuged to obtain plasma at 2000×g for 5 min at 6° C., and samples were stored at −20° C. After blood collection, each mouse was perfused with heparinized saline for 2-3 minutes and the entire brain removed rapidly and snap frozen in liquid nitrogen and stored at −80° C.
Briefly, dGAE (1 μg/mL) was used to coat ELISA plates and blocked with 2% Marvel. […] Following washing, HRP-conjugated anti-mouse IgG as detector was added, and the assay developed using TMB solution as normal. The absorbance at 450 nm was read using a Clariostar plate reader (BMG Labtech) and MARS Clariostar software used to calculate S1D12 concentration from a standard curve.
Average values from each group (representing a time point) was plotted (FIG. 10) and the in vivo half-life, Cmax and Tmax calculated by performing a non-compartmental analysis of the plasma data using the PKSolver2.0 software (FIG. 51, Table 31). […] Here a higher coating concertation of dGAE at 10 μg/ml was used to compete off antibody binding to tau present in the brain.

plasma tau = assay: Plasma tau (Simoa) after S1D12 immunotherapy; assay type: in vivo, mouse; settings: L66 mice
Method: In a six-week repeat-dose study, a total of 12 WT, 12 Line 1 (L1) and 12 Line 66 homozygotes (L66+/*) female mice aged 2-months at the beginning of the study were used (Table 32 for group size). Mice in each genotype were injected intraperitoneally (i.p.) with either vehicle or S1D12 (30 mg/kg), once per week, for six consecutive weeks.
Three-step assays were performed and analysed as per previously described plasma screening methods in this document.

dGAE [2] = target: T1, dGAE (Homo sapiens, UniProt P10636); assay: dGAE fibril assembly, circular dichroism; assay type: biochemical; settings: 100 μM dGAE + 25 μM antibody (4:1), antibody spectrum subtracted
T1 sequence (P10636 614-708): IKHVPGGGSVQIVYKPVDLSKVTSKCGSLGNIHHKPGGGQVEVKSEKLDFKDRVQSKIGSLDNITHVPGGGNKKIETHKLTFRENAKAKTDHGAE
Method: (§1) dGAE protein was diluted into 10 mM phosphate buffer, pH 7.4 (PB) with monoclonal antibody s1D12 at a ratio of 4:1 protein: Ab (100 μM dGAE+25 μM s1D12 and 10 μM dGAE+2.5 μM s1D12) or 1:1 (25 μM dGAE+25 μM s1D12).
(§2) As a positive control, dGAE was prepared at a final concentration of 10, 25 or 100 μM in 10 mM PB. Negative controls consisted of dGAE with a non-tau IgG antibody at a ratio of 4:1 (10 μM dGAE+2.5 μM anti-ovalbumin), or antibody alone (25 or 2.5 μM s1D12 and 2.5 μM anti-ovalbumin). Samples were agitated at 700 rpm at 37° C., for 3 days.
(§3) For CD, 60 μL sample was placed in a 0.1 mm quartz cuvette and placed into a JASCO spectropolarimeter. 100 μL ThS in 20 mM MOPS buffer was added to 50 μL of each sample to a final concentration of 20 μM, mixed well, incubated at room temperature for 10 minutes then fluorescence intensity measured in a Cary Eclipse spectrophotometer using an excitation wavelength of 440 nm. Baseline readings from 10 mM PB were subtracted from CD and ThS measurements.

dGAE [3] = target: T1, dGAE; assay: dGAE fibril assembly, Thioflavin S fluorescence; assay type: biochemical; settings: 25 and 100 μM dGAE, ratios 4:1 or 1:1
Method: as §1, §2, §3

hT40 = hT40 (Homo sapiens, UniProt P10636); assay: Sandwich ELISA, limits of detection (LoD) of antibody pairs; assay type: binding; settings: S1D12 mAb capture
Sequence of hT40 (P10636 1-441 isoform P10636-8): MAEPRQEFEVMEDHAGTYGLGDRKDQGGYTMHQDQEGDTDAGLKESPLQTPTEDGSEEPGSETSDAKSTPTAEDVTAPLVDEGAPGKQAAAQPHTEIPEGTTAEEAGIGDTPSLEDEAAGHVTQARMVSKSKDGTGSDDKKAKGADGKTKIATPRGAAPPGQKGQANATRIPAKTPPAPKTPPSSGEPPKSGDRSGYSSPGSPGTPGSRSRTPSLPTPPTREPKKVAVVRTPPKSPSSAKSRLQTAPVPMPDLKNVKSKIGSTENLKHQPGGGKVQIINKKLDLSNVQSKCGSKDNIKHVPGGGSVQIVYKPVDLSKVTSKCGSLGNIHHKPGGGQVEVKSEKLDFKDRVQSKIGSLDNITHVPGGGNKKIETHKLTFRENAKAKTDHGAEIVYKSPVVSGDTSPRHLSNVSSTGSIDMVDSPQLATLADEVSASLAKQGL
Method: Full length tau (hT40), at 1 μg/ml starting concentration was added to designated wells and double diluted across rest of the plates and left to incubate at R/T for 1 h. A series of detection scAbs with varying epitope recognition properties were added at 10 μg/ml to designated wells (FIG. 22). For colourimetric detection HRP conjugated anti-HuCk secondary antibody was used and the resulting immunoreaction was developed and absorbance at 450 nm measured as described previously. Cut-off point for a positive binding event was an absorbance value of 0.3 following background subtraction. In order to enhance the assay sensitivity, a chemiluminescent detection method was adopted where 50 μL SuperSignal ELISA Femto Substrate (Thermo Scientific) was added to each well following incubation with anti-HuCK HRP antibody and subsequent washing. The luminescence was read using Clariostar Plus microplate reader. A further modification to this protocol was done where various detection scAbs were directly conjugated with HRP and detected using chemiluminescent protocol as before. The lowest levels of detection achieved using different detection scAbs and a comparison of colourimetric and chemiluminescent methods of detection are shown in Table 28
The assay was conducted using chemiluminescent protocol described above.

dGAE aggregates = dGAE aggregates (Homo sapiens, UniProt P10636); assay: Sandwich ELISA on SDS/Triton X-100 treated dGAE aggregates; assay type: binding
Sequence of dGAE aggregates (P10636 614-708): as the sequence (P10636 614-708) above
Method: For aggregation, 1000 μL 100 μM dGAE+10 μL 10 mM DTT was added to a ‘LoBind’ microfuge tubes and agitated at 700 RPM/37° C., for 24 hours. Resulting sample centrifuged at 17,000×g/4° C., for 60 min and supernatant discarded to remove left over monomer. Pellet resuspended in half the original volume for future experiments and hereafter referred to as ‘aggregates’. 1 μl of aggregates was added to 1 ml of PBS and SDS was added to a final concentration of 1% (w/v). This was left to incubate on lab bench for 1 h with gentle agitation every 15 minutes. In order to neutralise the SDS effect on ELISA, Triton X-100 added to a final concentration of 3% (v/v) and mixed gently by pipetting to prevent any bubble formation. […] Similarly aggregates treated with only SDS or Triton X-100, untreated aggregates, dGAE monomers treated with only SDS or SDS+Titon X-100 were also added to designated wells as controls. All samples were then double diluted across the plate in final volumes of 100 μl. The final column was left with no protein to act as a blank. This was allowed to stand at room temperature for 1 hour followed by the addition of detection scAb-S1G2 at 10 μg/ml. Anti-HuCk HRP labelled secondary antibody was added as described previously and ELISA data generated was represented using the graph below. In addition, limits of detection (LoD) of various core binding antibody pairing for SDS Triton X-100 treated dGAE aggregates were calculated using the above describe ELISA method and substituting capture mAbs and detection scAbs as shown in Table 30.

B1: S1D12: anti-tau clone from immunised sheep, SEQ ID NO: 32 (protein)
scFv: QVQLQESGPSLVKPSQTLSLTCTVSGFSLNNNAVGWVRQAPGKVPESLVGCSSDGTCYYNSALKSRLDITRDTSKNQISLSLSSVTTDDAAVYYCTRGHYSIYGYDYLGTIDYWGPGLLVTVSSEGKSSGASGESKVDDQAVLTQPSSVSGSLGQRVSITCSGSSSNVGGGNSVGWYQHLPGSGLKTIIYDTNSRPSGVPDRFSGSRSGNTATLTINSLQAEDEGDYYCVTGDSTTHDDLVGSGTRLTVLG
modifications: S1D12 amino acid sequence
- Tmax (time of peak plasma concentration) [1]: 24 h
- t1/2 (elimination half-life from plasma) ([1]; non-compartmental analysis): 256.2 h
- Cmax ([1]; read-out: Cmax (peak plasma concentration)): 1.46 µM
- increase in plasma tau vs vehicle, NT1 assay (plasma tau): four-fold increase
- plasma tau, NT1 assay (BT2 capture with Tau12 detection) (plasma tau; S1D12 mAb 30 mg/kg weekly for 6 weeks): 3.2 ± 0.42 pg/mL
- increase in plasma tau vs vehicle, BT2-HT7 (plasma tau; did not reach statistical significance): two-fold increase
- dGAE secondary structure by CD (dGAE [2]): dGAE cannot assemble into β-sheet rich fibrils; also recorded: indicating that dGAE has not assembled into fibrils
- ThS fluorescence signal at 483 nm (dGAE [3]): this signal was abolished; also recorded: abolished when s1D12 is included in the assembly mixture

B2: S1G2: anti-tau clone, SEQ ID NO: 81 (protein)
scFv: QVQLQESGPSLVKPSQTLSLTCTVSGFSLTSNSVGWVRQAPGKAPEWVAGIDTDGEEGYNPALNSRLSITRDTSKSQVSLSLSSVTSEDTAVYYCGRSYRADGLAYGYVQAIDYWGPGLLVTVSSEGKSSGASGESKVDDQAVVTQPSSVSGSLGQRVSITCSGSFIGISSVGWFQQLPGSGLRTIIVASDGRPSGVPDRFSMSKSGNTATLTISSLQAEDEADYFCGSSDRTPYTGVFGSGTRLTVLG
modifications: S1G2 amino acid sequence
- LoD direct HRP conjugation of detection scAb & chemiluminescence (hT40): 0.04 ng/mL
- LoD (dGAE aggregates; S1D12 mAb capture, untreated dGAE agg.): 250 ng/mL
- LoD (dGAE aggregates; direct immobilisation of dGAE aggregates, +SDS Triton): 16 ng/mL
